Results as given in US20190276873A1.

Key:
Test in all cases: cell-based or functional assay
[1] = molecular target: Sensor 1: NNano-SV2C-p25-CNano (human)
[2] = molecular target: In vivo assay construct: Nnano(1-159)-Firefly(Full length)-GGGGS-p25(FullLength)-Cnano(160-170) (Photinus pyralis; human)
[3] = molecular target: Sensor 2: NNano-p25-CNano (human)
[4] = molecular target: Sensor 3: NNano-hVAMP1-CNano (human)

Chain of In vivo assay construct: Nnano(1-159)-Firefly(Full length)-GGGGS-p25(FullLength)-Cnano(160-170) (Photinus pyralis; human) (P08659 other isoform, or with tags, fused parts or gaps): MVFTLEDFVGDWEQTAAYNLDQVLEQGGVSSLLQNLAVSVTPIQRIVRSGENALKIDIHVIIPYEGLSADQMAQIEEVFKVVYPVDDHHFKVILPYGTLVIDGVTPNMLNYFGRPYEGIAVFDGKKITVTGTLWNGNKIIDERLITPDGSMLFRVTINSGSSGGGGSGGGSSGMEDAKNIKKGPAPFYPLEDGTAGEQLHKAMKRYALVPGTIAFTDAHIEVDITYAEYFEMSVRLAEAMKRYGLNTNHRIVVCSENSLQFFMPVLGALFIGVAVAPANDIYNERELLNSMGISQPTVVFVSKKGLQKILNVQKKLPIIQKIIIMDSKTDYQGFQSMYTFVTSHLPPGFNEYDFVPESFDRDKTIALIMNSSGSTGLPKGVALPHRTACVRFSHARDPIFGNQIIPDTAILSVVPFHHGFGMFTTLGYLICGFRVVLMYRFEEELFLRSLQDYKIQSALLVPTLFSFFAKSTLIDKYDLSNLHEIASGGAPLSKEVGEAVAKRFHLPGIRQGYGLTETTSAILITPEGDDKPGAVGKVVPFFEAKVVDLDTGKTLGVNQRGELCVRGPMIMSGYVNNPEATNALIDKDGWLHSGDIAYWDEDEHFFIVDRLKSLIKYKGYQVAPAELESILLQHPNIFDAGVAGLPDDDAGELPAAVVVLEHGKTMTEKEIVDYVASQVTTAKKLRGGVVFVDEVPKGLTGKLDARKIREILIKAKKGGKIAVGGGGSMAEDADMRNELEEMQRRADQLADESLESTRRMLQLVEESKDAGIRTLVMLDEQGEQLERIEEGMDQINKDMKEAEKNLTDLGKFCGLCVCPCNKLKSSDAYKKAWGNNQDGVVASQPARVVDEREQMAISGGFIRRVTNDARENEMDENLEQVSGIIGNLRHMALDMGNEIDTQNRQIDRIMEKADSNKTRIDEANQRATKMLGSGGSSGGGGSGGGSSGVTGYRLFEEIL

Substance	EC50 (percentage of luminescence of NANOLUC luciferase, after 4 h at 37 C) [1]	EC50 (percentage of luminescence of NANOLUC luciferase, after 24 h at 37 C) [1]	fold sensitivity (EC50) against the sensor without SV2C [1]	EC50 (ratio NANOLUC/Firefly in lysates of neurons, 48 h after toxin) [2]	EC50 (percentage of luminescence of NANOLUC luciferase, after 4 h at 37 C) [3]	EC50 (percentage of luminescence of NANOLUC luciferase, after 24 h at 37 C) [3]	EC50 (percentage of luminescence of NANOLUC luciferase, after 4 h at 37 C) [4]	EC50 (percentage of luminescence of NANOLUC luciferase, after 24 h at 37 C) [4]
Botulinum neurotoxin A (BoNT/A) (from UniProt P0DPI0 2-1296) (enzyme)	9.73 pM	7.86 pM	5 fold	2.9 pM	48.3 pM	35.9 pM	–	–
Botulinum neurotoxin B (BoNT/B) (from UniProt P10844 2-1291) (enzyme)	–	–	–	–	–	–	75.7 pM	3.9 pM
